{
  "source": "patent US20040002450A1",
  "about": "“Y17 - isolated molecules comprising epitopes containing sulfated moieties, antibodies to such epitopes, and uses thereof” (priority 2000, published 2004)",
  "key": {"[1]": {"molecular_target": "T1, GPIb (glycocalicin) derived from platelets (Homo sapiens, UniProt P07359)", "T1 construct": "glycocalicin (soluble, extracellular fragment of GPIbα); from tissue; host or cells: human platelets", "test": "ELISA to GC (glycocalicin), monomer versus dimer", "assay_type": "binding", "description": "An ELISA assay was performed to ascertain the differences in binding between the monomer (the Y1 scFv-also known as Y1-kak) and the dimer Y1-cys-kak (the cysteine dimer) for antigen GPIb (glycocalicin) derived from platelets. A polyclonal anti single chain antibody and/or a novel polyclonal anti-VL (derived from rabbits) and anti-rabbit HRP, were used to detect the binding to GPIb. […] For instance, to reach 0.8 OD units 12.8 μg/ml of monomer was used compared to only 0.1 μg/ml of dimer.\n100 ml of purified glycocalicin was incubated in a 96 flat well maxisorp plates, overnight at 4 degrees celsius. The plate was washed with PBST (PBS+0.05% tween) 3 times, then […] of PBST-milk (PBST+2% Non fat milk), for 1 hr at room temperature. The plate was washed with PBST, and the monomer or dimer (100 ml) was added in PBST-milk at different concentrations for 1 hr at room temp. Then the plate was washed and anti-VL polyclonal (derived from immunized rabbits with VL derived from Y1) (1:100 diluted in PBST-milk) was added for an hour. The plate was washed and anti-rabbit HRP was added for an additional hour. The plate was washed 5 times and 100 μl TMB substrate was added for approximately 15 minutes then 100 μl of 0.5H2SO4 was added to stop the reaction. The optical density of the plate was measured at 450 nm in an ELISA reader."}, "[2]": {"tested_on": "washed platelets", "test": "Ristocetin-induced agglutination of washed platelets after scFv preincubation", "assay_type": "cell-based, human", "description": "Aggregation is determined in PRP due to the presence of thrombotic agents, while agglutination is determined in washed platelets. The effect of Y1 (scFv) on agglutination of washed platelets was tested at various concentrations of Y1. Platelets were pre-incubated with Y1 scFv, Y17 scFv, Y16-scFv, or a control TM-1 scFv for 4 min at 37° C. before being exposed to ristocetin, an inducer of platelet agglutination and aggregation.\nPlatelet concentrate in acid-citrate-dextrose (ACD) was obtained from a blood bank, platelets were isolated, washed once in buffer containing ACD and saline in a ratio of 1:7. The platelets were centrifuged at 800 g for 10 min after each wash and were resuspended in Tyrodes solution (2 mM MgCl2, 137 mM NaCl, 2.68 mM KCl, 3 mM NaH2PO4, 0.1% glucose, 5 mM Hepes and 0.35% albumin, pH 7.35) and count the number of cells.\n(§1) For platelet aggregation studies, platelet rich plasma (PRP) and washed platelets were stirred at 500 rpm at 37° C. in whole blood Lumiaggregometer (Chronolog, Havertown, Pa.). The difference in light transmission through the platelet suspension and suspending medium was taken as 100% aggregation. The effect of Y1 on platelet aggregation was evaluated by addition of different concentration of Y1 before the addition of agonist, and the effect was recorded for four minutes.\nThe effect of Y17-scFv on vWF-dependent agglutination of platelets was tested at different concentrations of Y17."}, "[3]": {"tested_on": "platelet-rich-plasma (PRP)", "test": "Ristocetin-induced aggregation of platelet-rich-plasma after scFv preincubation", "assay_type": "cell-based, human", "description": "The effect of Y1 (scFv) on aggregation of platelet-rich-plasma (PRP) was tested at various concentrations of Y1. PRP was pre-incubated with Y1 scFv, Y17 scFv, or a control sTM-1cFv for 4 min at 37° C. before being exposed to ristocetin, an inducer of platelet agglutination and aggregation. A reversible inhibitory effect was observed when scFv was added to PRP prior to the addition of ristocetin, and it was dose dependent.\nBlood was collected into a tube containing 3.8% sodium citrate. Platelet-rich plasma was prepared by centrifugation at 250×g for 10 minutes.\nas §1"}, "[4]": {"molecular_target": "T2, platelet GPIbα (Homo sapiens, UniProt P07359)", "T2 construct": "endogenous in cells; host or cells: washed human platelets (blood-bank platelet concentrate)", "test": "Western blot/FACS of endoprotease-cleaved platelet GPIbα and glycocalicin", "assay_type": "binding", "excerpt": "(§2) Immunoblotting and endoprotease cleavage techniques were used to identify the epitope for Y1 on the surface membrane of platelets.\n(§3) The enzyme O-Sialoglycoprotein endoprotease from Pasteurella haemolytica (Cedarlan CLE 100) selectively cleaves human platelet GPIb and specifically cleaves only proteins containing sialylated, O-linked glycans. […] This enzyme has been reported to cleave GPIb, which is heavily O-glycosylated, but not GPIIb-IIIa or other receptors on platelets. GPIbα was digested with O-Sialoglycoprotein endoprotease in order to further establish the binding of Y1 to the molecule.\n(§4) Mocarhagin [Sigma L4515a] is a cobra venom metalloproteinase that cleaves platelet GPIbα specifically at a single site between residues glu-282 and asp-283, thereby generating two stable products: a ˜45-kDa N-terminal fragment (His1-Glu282), which is released into the supernatant, and a membrane-bound ˜95 kDa C-terminal fragment.\n(§5) Cathepsin G (Sigma C4428), a neutrophil serine protease, cleaves glycocalicin at a first cleavage site between residues Leu-275 and Tyr-276 and at a second cleavage site between residues Val-296 and Lys-297. Cathepsin G treatment of glycocalicin generates two N-terminal fragments: a small N-terminal 42 kDa fragment (His1-Leu275), a large N-terminal 45 kDa N-terminal fragment (His1-Val-296), and corresponding ˜95 kDa C-terminal fragments. (FIG. 1).\n(§6) For mocarhagin digestion, 10^8 washed platelets in TS buffer (0.01 M Tris, 0.15 M sodium chloride, pH 7.4) containing 1 mM calcium chloride were treated with 12 μg/ml mocarhagin (final concentration) for 1 hour at 22° C. and digestion was stopped by adding EDTA to 0.01 M.\n(§7) 10^6 platelets in 0.1 M Tris buffer pH 7.4 containing 0.2% albumin and protease inhibitors (10 μM leupeptin, 0.24 mM PMSF) was incubated with 0.14 mg/ml O-Sialoglycoprotein endoprotease (final concentration) for 45 min at 37° C. and digestion was stopped by adding sample buffer and boiling. The sample buffer used contained 3% SDS, 12% glycerol, 50 mM Tris HCl, 2% β-mercaptoethanol, and 0.03% bromphenol blue.\n(§8) For mocarhagin digestion, glycocalicin in TS buffer containing 1 mM calcium chloride was incubated with 10 μg/ml mocarhagin (final concentration) for 1 hour at 22° C. and digestion was stopped by adding EDTA to 0.01 M.\n(§9) For cathepsin G digestion, glycocalicin in TS buffer containing 1 mM calcium chloride was incubated with 3.4 μg/ml cathepsin G (final concentration) for 4 hour at 22° C. and digestion was stopped by adding PMSF to 1 mM."}, "[5]": {"tested_on": "platelet GPIbα", "test": "Western blot/FACS of endoprotease-cleaved platelet GPIbα and glycocalicin", "assay_type": "binding, human", "conditions": "immunoblots and FACS", "excerpt": "as §2, §3, §4, §5, §6, §7, §8, §9"}},
  "data": [
    {"molecule": "Y1-cys-kak: Y1 scFv with cysteine and lysine-alanine-lysine at the carboxyl end, forms a dimer; SEQ ID NO: 212 (protein) scFv: MEVQLVESGGGVVRPGGSLRLSCAASGFTFDDYGMSWVRQAPGKGLEWVSGINWNGGSTGYADSVKGRFTISRDNAKNSLYLQMNSLRAEDTAVYYCARMRAPVIWGQGTLVTVSRGGGGSGGGGSGGGGSSELTQDPAVSVALGQTVRITCQGDSLRSYYASWYQQKPGQAPVLVIYGKNNRPSGIPDRFSGSSSGNTASLTITGAQAEDEADYYCNSRDSSGNHVVFGGGTKLTVLGGGGCKAK", "values": [
      {"measurement": "activity relative to the monomer", "setting": "[1]", "result": "approximately 100 fold"},
      {"measurement": "concentration used to reach 0.8 OD units", "setting": "[1]", "result": 0.1, "unit": "µg/mL"}
    ]},
    {"molecule": "Y17 scFv: second human scFv clone selected on platelets; SEQ ID NO: 203, heavy chain CDR3 SEQ ID NO: 20 (protein, listed as Homo sapiens) scFv: MKYLLPTAAAGLLLLAAQPAMAEVQLVESGGGVVRPGGSLRLSCAASGFTFDDYGMSWVRQAPGKGLEWVSGINWNGGSTGYADSVKGRFTISRDNAKNSLYLQMNSLRAEDTAVYYCARLTHPYFWGQGTLVTVSRGGGGSGGGGSGGGGSSELTQDPAVSVALGQTVRITCQGDSLRSYYASWYQQKPGQAPVLVIYGKNNRPSGIPDRFSGSSSGNTASLTITGAQAEDEADYYCNSRDSSGNHVVFGGGTKLTVLGAAAEQKLISEEDLNGAA", "values": [
      {"measurement": "effect on vWF-dependent platelet agglutination in washed platelets induced by ristocetin (in words)", "setting": "[2]; final concentration of 10, 25 or 50 μg/ml", "result": "did not inhibit"},
      {"measurement": "% inhibition", "setting": "[2]; scFv 25 μg/ml, washed platelets, ristocetin", "result": 15, "unit": "%"},
      {"measurement": "% agglutination", "setting": "[2]; scFv 25 μg/ml, washed platelets, ristocetin = 100%", "result": 85, "unit": "%"},
      {"measurement": "effect on ristocetin-induced platelet aggregation in PRP (in words)", "setting": "[3]; concentration not given", "result": "did not inhibit"},
      {"measurement": "% inhibition", "setting": "[3]; scFv 38 μg/ml, PRP, ristocetin", "result": 0, "unit": "%"},
      {"measurement": "% aggregation", "setting": "[3]; scFv 38 μg/ml, PRP, ristocetin = 100%", "result": 100, "unit": "%"},
      {"measurement": "binding to cathepsin G fragments of glycocalicin", "setting": "[4]; Western blot", "result": "bound to the larger fragment (His1-Val-296), but not to the smaller fragment (His1-Leu275)"},
      {"measurement": "binding after mocarhagin treatment of washed platelets", "setting": "[4]; Western blot of platelet lysates", "result": "binding of Y17 to the N-terminal 45 kDa tryptic fragment"},
      {"measurement": "binding to washed platelets after O-Sialoglycoprotein endoprotease", "setting": "[5]", "result": "abolishes binding"}
    ]}
  ]
}
